In patent publication US6730301:

T1: MIP-1α/RANTES receptor (Homo sapiens (Human), UniProt P32246 1-355)
T1 sequence: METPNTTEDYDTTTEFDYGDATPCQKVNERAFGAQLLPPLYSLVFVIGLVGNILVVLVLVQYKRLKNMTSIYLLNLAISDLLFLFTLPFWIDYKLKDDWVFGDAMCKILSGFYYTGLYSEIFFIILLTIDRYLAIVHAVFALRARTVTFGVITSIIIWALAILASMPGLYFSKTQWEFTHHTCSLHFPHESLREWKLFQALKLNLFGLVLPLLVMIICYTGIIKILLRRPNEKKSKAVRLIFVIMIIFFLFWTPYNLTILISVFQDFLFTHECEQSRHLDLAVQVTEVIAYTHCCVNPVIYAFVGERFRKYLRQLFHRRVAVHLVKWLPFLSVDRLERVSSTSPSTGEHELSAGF


Tests used:
Test in all cases: cell-based or functional assay
[1] = target: MCP-1RB (monocyte chemoattractant protein-1 receptor B) (human) (UniProt P41597)
[2] = target: MIP-1α/RANTES receptor (Homo sapiens (Human)) (UniProt P32246)
MIP-1α/RANTES receptor = target: T1, MIP-1α/RANTES receptor

Chain of MCP-1RB (monocyte chemoattractant protein-1 receptor B) (human) (P41597 other isoform, or with tags, fused parts or gaps): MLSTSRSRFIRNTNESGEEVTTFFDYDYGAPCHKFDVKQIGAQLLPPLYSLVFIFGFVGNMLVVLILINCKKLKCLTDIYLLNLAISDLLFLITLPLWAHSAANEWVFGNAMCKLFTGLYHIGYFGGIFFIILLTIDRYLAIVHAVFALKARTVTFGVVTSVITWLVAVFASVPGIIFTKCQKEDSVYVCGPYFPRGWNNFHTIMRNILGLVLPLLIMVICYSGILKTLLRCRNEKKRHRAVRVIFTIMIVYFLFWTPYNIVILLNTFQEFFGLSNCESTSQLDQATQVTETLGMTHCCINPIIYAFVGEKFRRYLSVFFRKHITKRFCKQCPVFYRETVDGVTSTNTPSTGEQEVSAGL

Row | Molecule | IC50, Inhibition of Adenylyl Cyclase [1] | IC50, Inhibition of Adenylyl Cyclase [2] | IC50, Inhibition of Adenylyl Cyclase (MIP-1α/RANTES receptor) | Selectivity (against MCP-1RB), inhibition of adenylyl cyclase (MIP-1α/RANTES receptor)
1 | IL-8 (interleukin-8) (from UniProt P10145 28-99) (ligand) | > 1000 nM |  |  | 
2 | Gro-α (from UniProt P09341 35-107) (ligand) | > 1000 nM | > 1000 nM |  | 
3 | MIP-1α (ligand, UniProt P10147 27-92, looked up) ADTPTACCFSYTSRQIPQNFIADYFETSSQCSKPGVIFLTKRSRQVCADPSEEWVQKYVSDLELSA | > 1000 nM |  | 0.11 nM | > 9000 fold
4 | MIP-1β (ligand, UniProt P13236 24-92, looked up) APMGSDPPTACCFSYTARKLPRNFVVDYYETSSLCSQPAVVFQTKRSKQVCADPSESWVQEYVYDLELN | > 1000 nM |  | 10 nM | > 100 fold
5 | RANTES (ligand, UniProt P13501 24-91, looked up) SPYSSDTTPCCFAYIARPLPRAHIKEYFYTSGKCSNPAVVFVTRKNRQVCANPEKKWVREYINSLEMS | > 1000 nM |  | 0.14 nM | > 7000 fold
